The target in test [1] is biotinylated human IL-2Ralpha extracellular domain (residues 1-214) (human) (UniProt P01589). Briefly: bio-layer interferometry equilibrium titration on immobilized hIL-2Rα, response MW normalized.
The target in test [2] is T1, yeast surface-displayed human IL-2 (residues 1-133) (human, UniProt P60568 21-153).
T1 construct: also called hIL-2; not shown: yeast display anchor encoded by the pCT302 vector
Briefly: yeast surface titration on hIL-2-displaying yeast, flow cytometry, normalized MFI. As to the method:
(§1) Yeast surface binding studies. […] Cells were then washed and stained with a 1:200 dilution of Alexa647-conjugated streptavidin (Thermo) in PBSA for 15 minutes at 4° C. After a final wash, cells were analyzed for antibody binding using a CytoFLEX flow cytometer (Beckman Coulter). Background-subtracted and normalized binding curves were fitted to a first-order binding model and equilibrium dissociation constant (KD) values were determined using GraphPad Prism.
(§2) A rapid small-scale HEK 293F cell transfection assay was developed to optimize immunocytokine expression. […] After a 3-day incubation, secreted protein was captured from the supernatant with protein G resin, eluted with 0.1 M glycine pH 2.0, and analyzed via SDS-PAGE. […] Immunocytokine expression was scaled up in HEK 293F cells and the secreted protein was purified via protein G affinity chromatography followed by size-exclusion chromatography.

For test [3], the target named is T2, yeast surface-displayed mouse IL-2 (residues 1-149) (mouse, UniProt P04351 21-169).
T2 construct: range 1-149; also called mIL-2; not shown: yeast display anchor encoded by the pCT302 vector
T2 sequence (looked up): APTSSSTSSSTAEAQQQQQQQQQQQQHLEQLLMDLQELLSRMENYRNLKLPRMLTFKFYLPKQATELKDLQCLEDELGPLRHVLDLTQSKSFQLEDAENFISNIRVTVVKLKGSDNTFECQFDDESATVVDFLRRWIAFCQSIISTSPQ
Nature of the test: yeast surface titration on mIL-2-displaying yeast, flow cytometry, normalized MFI.

Test [4] has as its target T1, yeast surface-displayed human IL-2 …. Nature of the test: yeast surface display titration of soluble antibody, flow cytometry; apparent bivalent affinity. As to the method: as §1, §2
The target is the same in test [5]. Briefly: yeast surface titration on hIL-2-displaying yeast, flow cytometry, normalized MFI. As to the method:
as §1
This is another data set of the same source.

For test [6], the target named is T3, biotinylated human IL-2 immobilized on streptavidin-coated tips (human, UniProt P60568 21-153, biotinylated (site not stated)).
T3 construct: also called biotinylated hIL-2; immobilized hIL-2; not shown: tags and biotinylation site of the biotinylated hIL-2 construct are not described (the BAP tag is described only for hIL)
T3 sequence (P60568 21-153): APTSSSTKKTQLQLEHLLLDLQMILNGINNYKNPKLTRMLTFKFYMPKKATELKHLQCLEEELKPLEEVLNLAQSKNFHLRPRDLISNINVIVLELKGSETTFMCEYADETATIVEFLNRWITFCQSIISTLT
Briefly: bio-layer interferometry equilibrium titration on immobilized hIL-2, response MW normalized. As to the method: (§3) Bio-layer interferometry binding studies. […] Less than 5 signal units (nm) of receptor was immobilized to minimize mass transfer effects. […] An irrelevant protein was included in a reference well to subtract non-specific binding. Surface regeneration for all interactions was conducted using a 15 second exposure to 0.1 M glycine pH 3.0. Experiments were carried out in PBSA (phosphate-buffered saline, pH 7.3 plus 0.1% bovine serum albumin (BSA, Thermo Fisher Scientific)) at 25° C. Data was visualized and processed using the Octet® Data Analysis software version 7.1 (Molecular Devices). Equilibrium titration curve fitting and KD value determination was implemented using GraphPad Prism, assuming all binding interactions to be first order.

In test [7] the target is T3, biotinylated human IL-2 immobilized on …. Described as above. Here is the method:
as §3
This is another data set of the same source.

Where two headings read alike, the source gives them in different places.

T1 sequence (P60568 21-153): as above

The molecule “hIL-2/F5111 complex (from UniProt P60568 21-153)” registered an EC50 (read off the curve) in test [1] of 8000 pM.

As for “human IL-2 cytokine (residues 1-133), soluble, C-terminal hexahistidine tag (from UniProt P60568 21-153) (ligand)”, the EC50 (read off the curve) in test [1] came out at 5000 pM.

B1: recombinant F5111 antibody (human IgG1 lambda) (antibody, V domains shown)
VH: QLQLQESGPGLVKPSQTLSLTCTVSGGSISSGGYYWSWIRQHPGKGLEWIGYIYYSGSTYYNPSLKSRVTISVDTSKNQFSLKLSSVTAADTAVYYCARTPTVTGDWFDPWGRGTLVTVSS
VL: NFMLTQPHSVSESPGKTVTISCTRSSGSIASNYVQWYQQRPGSSPTTVIYEDNQRPSGVPDRFSGSIDSSSNSASLTISGLKTEDEADYYCQSYDSSNVVFGGGTKLTVLG
notes: also called F5111 Ab; monoclonal antibody F5111
Turning to B1, the Kd is 420 pM in test [2] and 430 pM in test [4]. In test [3], the binding result is listed as “no binding (tested: about 1e-7 M)”. The “EC50 (read off the curve)” value in test [5] was approximately 80 pM; in test [6], approximately 600 pM; in test [7], approximately 3000 pM.

Source of the values: patent US20220160891A1 (Johns Hopkins, published 2022).
